Earlier results, collected in article PMC4245983.
Like-named read-outs stand apart in the source and are kept apart here.

Legend:
IscU (Escherichia coli) [1] = target: IscU (Escherichia coli) (UniProt P0ACD4); conditions: cited from earlier work
IscU (Escherichia coli) [2] = target: IscU (Escherichia coli) (UniProt P0ACD4); conditions: cited from earlier work; remark: listed apart in the source

HscA, sequence (P0A6Z1 whole entry): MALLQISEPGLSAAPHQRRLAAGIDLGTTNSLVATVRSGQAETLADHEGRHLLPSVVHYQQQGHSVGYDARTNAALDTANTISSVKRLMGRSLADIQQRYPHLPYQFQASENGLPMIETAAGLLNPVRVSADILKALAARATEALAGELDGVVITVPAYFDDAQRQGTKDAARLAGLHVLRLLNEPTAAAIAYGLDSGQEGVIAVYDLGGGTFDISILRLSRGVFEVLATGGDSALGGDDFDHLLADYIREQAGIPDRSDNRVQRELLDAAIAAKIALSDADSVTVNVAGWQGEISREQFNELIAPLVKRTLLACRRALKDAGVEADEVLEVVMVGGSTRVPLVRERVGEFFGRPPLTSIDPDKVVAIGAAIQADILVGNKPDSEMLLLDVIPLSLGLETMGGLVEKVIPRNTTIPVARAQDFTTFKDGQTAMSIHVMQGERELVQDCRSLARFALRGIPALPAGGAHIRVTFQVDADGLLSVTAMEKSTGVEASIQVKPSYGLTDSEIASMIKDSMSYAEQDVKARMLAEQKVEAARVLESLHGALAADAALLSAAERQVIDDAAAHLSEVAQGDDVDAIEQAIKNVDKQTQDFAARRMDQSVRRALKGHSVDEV
IscU (Escherichia coli), sequence (P0ACD4 whole entry): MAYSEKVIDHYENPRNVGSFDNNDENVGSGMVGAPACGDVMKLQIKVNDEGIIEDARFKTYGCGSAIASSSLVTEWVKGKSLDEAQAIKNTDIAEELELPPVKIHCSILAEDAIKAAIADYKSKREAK

HscA (from UniProt P0A6Z1)
Kd (IscU (Escherichia coli) [1]): 1.6 µM | Kd (IscU (Escherichia coli) [2]): 37 µM
